Molecular target: ubiquitin-specific protease 7 (USP7/HAUSP), endogenous in human H1299 and HCT116 cells (human) (UniProt Q93009)
Assay: cell-based or functional assay

UniProt Q93009, sequence (Q93009 whole entry): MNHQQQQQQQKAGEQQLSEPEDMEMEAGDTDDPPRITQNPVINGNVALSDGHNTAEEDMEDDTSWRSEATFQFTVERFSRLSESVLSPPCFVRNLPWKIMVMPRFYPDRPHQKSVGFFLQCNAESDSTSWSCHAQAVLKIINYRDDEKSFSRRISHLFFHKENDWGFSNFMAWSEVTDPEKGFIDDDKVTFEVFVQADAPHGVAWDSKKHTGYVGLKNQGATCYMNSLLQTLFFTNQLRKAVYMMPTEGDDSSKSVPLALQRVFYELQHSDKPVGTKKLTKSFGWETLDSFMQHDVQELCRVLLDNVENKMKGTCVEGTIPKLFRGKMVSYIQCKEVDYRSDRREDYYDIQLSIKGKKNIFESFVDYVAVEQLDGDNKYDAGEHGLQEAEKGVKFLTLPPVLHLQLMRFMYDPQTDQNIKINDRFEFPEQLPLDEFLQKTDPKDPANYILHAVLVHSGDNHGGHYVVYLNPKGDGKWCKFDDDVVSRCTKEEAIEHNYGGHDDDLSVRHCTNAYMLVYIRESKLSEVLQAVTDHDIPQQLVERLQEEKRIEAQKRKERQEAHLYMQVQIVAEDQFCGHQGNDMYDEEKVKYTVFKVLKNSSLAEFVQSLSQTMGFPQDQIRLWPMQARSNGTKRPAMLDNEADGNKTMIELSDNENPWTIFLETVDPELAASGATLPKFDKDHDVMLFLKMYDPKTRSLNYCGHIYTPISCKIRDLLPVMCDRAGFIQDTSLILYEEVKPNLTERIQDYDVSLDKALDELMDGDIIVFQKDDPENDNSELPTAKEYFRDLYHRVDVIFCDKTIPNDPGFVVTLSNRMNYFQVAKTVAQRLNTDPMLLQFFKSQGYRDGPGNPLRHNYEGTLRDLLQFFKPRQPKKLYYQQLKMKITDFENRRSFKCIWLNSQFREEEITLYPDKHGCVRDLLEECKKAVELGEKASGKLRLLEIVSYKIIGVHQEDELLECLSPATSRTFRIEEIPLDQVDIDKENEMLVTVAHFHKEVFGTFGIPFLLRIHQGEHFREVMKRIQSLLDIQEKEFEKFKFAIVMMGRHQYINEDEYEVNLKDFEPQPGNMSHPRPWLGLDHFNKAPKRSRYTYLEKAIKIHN

Substance: DBP-S76A of the virus mutant UBM2 (H5pm4250) (from UniProt P03265 1-529)
- USP7 diffusely distributed within the nucleus, 48 h p.i. (immunofluorescence) (% of the UBM2-infected cells): 45
- partial relocalization of USP7 into ring-like or rosette-shaped replication centers, 48 h p.i. (immunofluorescence) (% of the UBM2-infected cells): 55
- relocalization of USP7 into viral replication centers (immunofluorescence) (% of the infected cells): 100

Reference: patent publication US20230302123A1
